Our source for the Km and kcat/Km values is PMC11382572, “Structural and kinetic insights into the stereospecific oxidation of R-2,3-dihydroxypropanesulfonate by DHPS-3-dehydrogenase from Cupriavidus pinatubonensis” (Chemical Science, 2024).

Common to all, as to type: biochemical, Cupriavidus pinatubonensis
Substrate in series [1]: NC(=O)c1ccc[n+]([C@@H]2O[C@H](COP(=O)([O-])OP(=O)(O)OC[C@H]3O[C@@H](n4cnc5c(N)ncnc54)[C@H](O)[C@@H]3O)[C@@H](O)[C@H]2O)c1
As to the kind of experiment: X-ray crystal structure by soaking (open conformation); Michaelis-Menten kinetics (apparent KM). Particulars: Zn2+ nonproductive complex; nicotinamide group disordered, modelled with zero occupancy; varied: cofactor.

Substrate in series [2]: O=CC(O)CS(=O)(=O)O
Description: Michaelis-Menten kinetics (apparent KM); LCMS product. Particulars: Zn2+, NAD+.

Substrate in the series “purified protein”: O=S(=O)(O)C[C@H](O)CO
Description: purified protein. Particulars: Zn2+, NAD+.

B1: DHPS-3-dehydrogenase (CpHpsN) (Cupriavidus pinatubonensis JMP134) (protein)
chain: MISYLKKAEKTPQTETATAQKVVTEMLAEIQARGKDAVRQYAKQLDGWSGDIVLTPDQIREQTKDVPAGVRADIDFAIRQVTDFALAQRESLKEFSVELHPGVTAGQRVLPVNVVGCYAPAGRYAHIASAYMGVATAKAAGVKTVVACSSPFRGQGIHPHVLYAFQAAGADVIMALGGVQAIASMAYGLFTGKPADVVVGPGNKFVAEAKRSLYGQVGIDVFAGPSEVAVIADETADPAIVASDLVGQAEHGHESPAWLFTTSRDLADRVMALVPELIAKLPPTARDAATAAWRDYGEVILCGTREEVVEISDRYASEHLEVHTADLDWWLANLTCYGSLFLGEETTVAFGDKTSGPNHVLPTKGAARYSGGLSVHKFMKTLTWQQMTREATRQIGQVTARISRLEGMEAHARTADDRMAKYFPNASFEMGTPVEV
For B1, the results for the Michaelis constant (Km) (in series [1]; in series [2]; in “purified protein”) were 0.47 ± 0.10 mM, 0.36 ± 0.06 mM and 1.3 ± 0.15 mM, respectively. Besides, the kcat/Km (usually the second-order rate constant that governs catalysis at low substrate concentration) in series [1] came out at 3400 ± 1100 M⁻¹ s⁻¹; in series [2], 8600 ± 830 M⁻¹ s⁻¹; in the series “purified protein”, 750 ± 200 M⁻¹ s⁻¹.
